The DeepSol protein solubility set

assay: soluble on expression in E. coli; label from the status in PepcDB or PDB records

Sequence | soluble on expression in E. coli
SLIKFLSALILLLVTTAAQAERIRDLTSVQGVRQNSLIGYGLVVGLDGTGDQTTQTPFTTQTLNNMLSQLGITVPTGTNMQLKNVAAVMVTASLPPFGRQGQTIDVVVSSMGNAKSLRGGTLLMTPLKGVDSQVYALAQGNILVGGAGASAGGSSVQVNQLNGGRITNGAVIERELPSQFGVGNTLNLQLNDEDFSMAQQIADTINRVRGYGSATALDARTIQVRVPSGNSSQVRFLADIQNMQVNVTPQDAKVVINSRTGSVVMNREVTLDSCAIAQGNLSVTVNRQANVSQPDTPFGGGQTVVTPQTQIDLRQSGGSLQSVRSSASLNNVVRALNALGATPMDLMSILQSMQSAGCLRAKLEII | not soluble
SLKAKILFVGPCESGKTVLANFLTESSDITEYNPTQGVRILEFENPHVTSNNKGTGCEFELWDCGGDSKFESCWPALMKDAHGVVIVFNADIPSHLKEIEMWYSCFVQQQFLQDSHCMLVAHHKPGSGGERGSLALSPPLNKLKLVHSNLEEDPEEVRVEFIKYLKSIINSMSESRDREEMLIIT | soluble
SLKKEISILNIPFYNTTQAGFVEELYMAAKNGERRFVVTANPEIVMHARTDKEFEAILGQADYIVPDGIGIIMASEKLGEPLKERVTGYDTMVGLLNKPLSCYFLGAKPEISEVVEAKVREKFPQAVVCGVHHGYFDVLESEAIAKEILVAQPDVIFVALGSPAQEKWILSQIANFTKGIFIGVGGSFDVLTDSVKRAPKIWIKLRLEWVYRLLSNPSRWRRFFAIPQFMLVIRKERKRLKKG | soluble
SLKKKSLKLTALFLALSCFPAFAEQTVDIEVQGIRGFRAVRNTDLNVNLINKEEMDGSERYQHLVTKAVDRGLRVFGYYESSVRFERKQRQGKRDLLIAHVTPGEPTKIAGTDVQIEGEAAQDENFNALRKNLPKDGVLVEHQTYDDYKTAISRLALNRGYFDGNFKISRLEISPETHQAWWRMLFDSGVRYHYGNITFSHSQIRDDYLNNILNIKSGDPYLMNNLSDLTSDFPSSNWFSSVLVQPNVNHKSKTVDVEIILYPRKKNAMELGVGFSTDGGVHGQIGWTKPWINSRGHSLRSNLYLSAPKQTLEATYRMPLLKNPLNYYYDFAVGWEGEKENDTNTRVLTLSALRYWNNAHGWQYFGGLRMRYDSFTQADITDKTLLLYPTVGFTRTRLRGGSFATWGDVQKITFDLSKRIWLSESSFIKVQASSAWVRTYAENHRVVARAEIGYLHTKGIEKIPPTLRFFAGGDRSVRGYGYKKIAPKNRNGKLVGGSRLLTTSLEYQYQVYPNWWAATFADSGLAADNYTAKELRYGTGVGVRWASPVGAIKFDIATPIRDKDNSKNIQFYIGLGTEI | soluble
SLKTPGYPDGPIAIYGDNIFLYSEPTAEEAARFDVVINCAREVSNPFEINKATRRPMSIAEPDTAVSTASFMTAWEFPQGDDSAETPTTPKALQFQEPEYIHIPWDHNTDIAPDLMDLCHVVDDRTKAGKRVLIHCQQGASRSASLIIAYGLFQRPELTVNDAYYAAQAKSQWISPNMKLMYSLQDFQKEVSTKRTAQPSNREG | soluble
SLLCVVGGSMNVSMEASIVESLLQRRCLKESDLYRARQLQAESGVGLLPLLGRLGLVSERDHAEVCAEVMGLLLIQVRELPDTPPEFSAEVHGLSIRFLKQFHVCPLAEHDGVLQLCVADPFDVYAIEALRLATGAVLQLCIGLRSEIDDLVERWYGQGRS | soluble
SLLEIDNQTPLESDFSLLEKIAKFLAPTQIIELVLVSDETMREINRDLRGCDYVTDVLSFPLEAIPHTPLGSVVINAPLAQENALKLGHRLEEEIALLFIHGVLHLLGYDHEKDKGEQRQKESELIKAFNLPLSLIERTQD | soluble
SLMVPVEIRWQQGGSKVYVTGSFTKWRKMIGLIPDSDNNGSFHVKLRLLPGTHRFRFIVDNELRVSDFLPTATDQMGNFVNYIEVRQPEKNPTNEKIRSKEADSMRPPTSDRSSIALQIGKDPDDFGDGYTRFHEDLSPRPPLEYTTDIPAVFTDPSVMERYYYTLDRQQSNTDTSWLTPPQLPPQLENVILNKYYATQDQFNENNSGALPIPNHVVLNHLVTSSIKHNTLCVASIVRYKQKYVTQILYTPI | soluble
SLQLESLISAAPALSQQAVDQEWSYMDFLEHLLHEEKLARHQRKQAMYTRMAAFPAVKTFEEYDFTFATGAPQKQLQSLRSLSFIERNENIVLLGPSGVGKTHLAIAMGYEAVRAGIKVRFTTAADLLLQLSTEQRQGRYKTTLQRGVMAPRLLIIDEIGYLPFSQEEAKLFFQVIAKRYEKSAMILTSNLPFGQWDQTFAGDAALTSAMLDRILHHSHVVQIKGESYRLRQKRKAGVIAEANP | not soluble
SLQSNILAFTPPAPSASMNVNRTAVVSVTTKDSRAIQEIASYTKHGELIKLNASPSVTQLFQQVMQQNLISKGFRVGQLNGSNAWVTVDVREFGTQVEQGNLRYKLNTKIQATVYVQGAKGSYNKSFNVTHSQEGVFNAGNDEIHKVLSQTFNDIVNNIYQDQEVAAAINQYSN | soluble
SLRFLGEKAAAKRQVLNADSVEQSFVGLKQLISCRNWRAAVDLCGRLLTAHGQGYGKSGLLTSHTTDSLQLWFVRLALLVKLGLFQNAEMEFEPFGNLDQPDLYYEYYPHVYPGRRGSMVPFSMRILHAELQQYLGNPQESLDRLHKVKTVCSKILANLEQGLAEDGGMSSVTQEGRQASIRLWRSRLGRVMYSMANCLLLMKDYVLAVEAYHSVIKYYPEQEPQLLSGIGRISLQIGDIKTAEKYFQDVEKVTQKLDGLQGKIMVLMNSAFLHLGQNNFAEAHRFFTEILRMDPRNAVANNNAAVCLLYLGKLKDSLRQLEAMVQQDPRHYLHESVLFNLTTMYELESSRSMQKKQALLEAVAGKEGDSFNTQCLKLA | not soluble
SLRILPQEPVIREEQNWLTILKNAISDPKLLLKALNLPEDDFEQSIAARKLFSLRVPQPFIDKIEKGNPQDPLFLQVMCSDLEFVQAEGFSTDPLEEKNANAVPNILHKYRNRLLFMAKGGCAVNCRYCFRRHFPYDENPGNKKSWQLALDYIAAHSEIEEVIFSGGDPLMAKDHELAWLIKHLENIPHLQRLRIHTRLPVVIPQRITDEFCTLLAETRLQTVMVTHINHPNEIDQIFAHAMQKLNAVNVTLLNQSVLLKGVNDDAQILKILSDKLFQTGILPYYLHLLDKVQGASHFLISDIEAMQIYKTLQSLTSGYLVPKLAREIAGEPNKTLYAE | soluble
SLSAALRTLKHVLYYSRQCLMVSRNLGSVGYDPNEKTFDKILVANRGEIACRVIRTCKKMGIKTVAIHSDVDASSVHVKMADEAVCVGPAPTSKSYLNMDAIMEAIKKTRAQAVHPGYGFLSENKEFARCLAAEDVVFIGPDTHAIQAMGDKIESKLLAKKAEVNTIPGFDGVVKDAEEAVRIAREIGYPVMIKASAGGGGKGMRIAWDDEETRDGFRLSSQEAASSFGDDRLLIEKFIDNPRHIEIQVLGDKHGNALWLNERECSIQRRNQKVVEEAPSIFLDAETRRAMGEQAVALARAVKYSSAGTVEFLVDSKKNFYFLEMNTRLQVEHPVTECITGLDLVQEMIRVAKGYPLRHKQADIRINGWAVECRVYAEDPYKSFGLPSIGRLSQYQEPLHLPGVRVDSGIQPGSDISIYYDPMISKLITYGSDRTEALKRMADALDNYVIRGVTHNIALLREVIINSRFVKGDISTKFLSDVYPDGFKGHMLTKSEKNQLLAIASSLFVAFQLRAQHFQENSRMPVIKPDIANWELSVKLHDKVHTVVASNNGSVFSVEVDGSKLNVTSTWNLASPLLSVSVDGTQRTVQCLSREAGGNMSIQFLGTVYKVNILTRLAAELNKFMLEKVTEDTSSVLRSPMPGVVVAVSVKPGDAVAEGQEICVIEAMKMQNSMTAGKTGTVKSVHCQAGDTVGEGDLLVELE | soluble
SLSGGKYVDSEGHLYTVPIREQGNIYKPNNKAMADELSEKQVYDAHTKEIDLVNRDPKHLNDDVVKIDFEDVIAEPEGTHSFDGIWKASFSTFTVTKEG | soluble
SLTEKDVLSQEEIDALLDSVDESIDGETNDEELNSSDQPARKKPEDTTGQELNSTFDSDIKVAEEGVKTLNFTGQERIVKGQLPVLDKIYDRAVRLFAADIYHLTARDFEIKQDPLLITKHKEFMRSLPNPSLIGIYKFKPLRGKGIILFDSTFVYDLVDYYFGGNSQFGAQKDKTDFTATELRVMEVVTKKLVTNLTHAWEPIIQLDVTKFNDETNPQLVNIAEPEEMLLVARFLLNFGKETGAFYFILPYSMLEPIKQQLELGASRPDDEIDPNWINSLKEELMDVELTVSASMAETVSTLGQVMAWKVGDFVPLEINEEVTLDIEGTPSFTATLGSANEKRALKIIKIIRY | soluble
SLTGQLHPAVRVADLLQHINQMKTAEGYGFKQEYESFFEGWDATKKKDKVKGSRQEPMPAYDRHRVKLHPMLGDPNADYINANYIDGYHRSNHFIATQGPKPEMVYDFWRMVWQEHCSSIVMITKLVEVGRVKCSRYWPEDSDTYGDIKIMLVKTETLAEYVVRTFALERRGYSARHEVRQFHFTAWPEHGVPYHATGLLAFIRRVKASTPPDAGPIVIHCSAGTGRTGCYIVLDVMLDMAECEGVVDIYNCVKTLCSRRVNMIQTEEQYIFIHDAILEACLCGETTIPVSEFKATYKEMIRIDPQSNSSQLREEFQTLNSVTPPLDVEECSIALLPRNRDKNRSMDVLPPDRCLPFLISTDGDSNNYINAALTDSYTRSAAFIVTLHPLQSTTPDFWRLVYDYGCTSIVMLNQLNQSNSAWPCLQYWPEPGRQQYGLMEVEFMSGTADEDLVARVFRVQNISRLQEGHLLVRHFQFLRWSAYRDTPDSKKAFLHLLAEVDKWQAESGDGRTIVHCLNGGGRSGTFCACATVLEMIRCHNLVDVFFAAKTLRNYKPNMVETMDQYHFCYDVALEYLEGLESR | not soluble
SLVKSTSCTTIDFMNMSQLTERTFTSSESLSSLSLFLSLARGQCRPGKFWHRRSFRQKFLLRSLIMPRLSVEWMNELSHWPNLNVLLTRQPRLPVRLHRPYLAANLSRKQLLEALRYHYALLRGCMSAEEFSLYLNTPGLQLAKLEGKNGEQFTLELTMMISMDKEGDSTILFRNSEGIPLAEITFTLCEYQGKRTMFIGGLQGAKWEIPHQEIQNATKACHGLFPKRLVMEAACLFAQRLQVEQIIAVSNETHIYRSLRYRDKEGKIHADYNAFWESVGGVCDAERHYRLPAQIARKEIAEIASKKRAEYRRRYEMLDAIQPQMATMFRG | not soluble
SLVTSLKGLWTLRAFGRQPYFETSGGGSGGGSGGGSGGGSGGGEYNLTTTEVVMENVTAFWEEGGTPVLKDINFKIERGQLLAVAGSTGAGKTSLLMMIMGELEPSEGKIKHSGRISFCSQFSWIMPGTIKENIIFGVSYDEYRYRSVIKACQLEEDISKFAEKDNIVLGEGGITLSGGQRARISLARAVYKDADLYLLDSPFGYLDVLTEKEIFESCVCKLMANKTRILVTSKMEHLKKADKILILHEGSSYFYGTFSELQNLQPDFSSKLMG | soluble
SLVVNRSWMRCWSITALRADHSVKICLIDETGAGDGALSVLAARWGLEHDEDNLMALVLTPEHLELRKRDEPKLGGIFVDFVGGAMAHRRKFGGGRGEAVAKAVGIKGDYLPDVVDATAGLGRDAFVLASVGCRVRMLERNPVVAALLDDGLARGYADAEIGGWLQERLQLIHASSLTALTDITPRPQVVYLDPMFPHKQKSALVKKEMRVFQSLVGPDLDADGLLEPARLLATKRVVVKRPDYAPPLANVATPNAVVTKGHRFDIYAGTPV | soluble
SMANHLVKPDNRNCKRPRELESPVPDSPQLSSLGKSDSSFSEISGLFYKDEALEKDLNDVSKEINLMLSTYAKLLSERAAVDASYIDEIDELFKEANAIENFLIQKREFLRQRFTVIANTLHR | soluble
